Assay results published in patent publication US20180105835, “TARGETED RNA KNOCKDOWN AND KNOCKOUT BY TYPE III-A Csm COMPLEXES” (VILNIUS UNIVERSITY, published 2018).

Target: StCsm effector complex (Cas10-Csm2-Csm3-Csm4-Csm5, StCsm-40), wild type (Streptococcus thermophilus DGCC8004, UniProt A0A0A7HFE1;A0ABF7SXA0;A0A0A7HIF0;A0ABF7SXA2;A0ABF7SXA3 …)
Assay: EMSA; gel shift, StCsm-40; value only in figure
Conditions: tags: N-terminal StrepII on Csm2; chain copies: Cas10:1 Csm2:3 Csm3:5 Csm4:1 Csm5:1 (stated); label: 5'-33P
Experimental: FIGS. 16A-B show in vitro cleavage activity of the StCsm targeted to the GFP transcript. Schematic representation of StCsm bound to the target RNA used for in vitro binding and cleavage assays is presented above the gels. RNA was 5′-end labeled with ³³P as indicated with asterisk. (FIG. 16A) Gel shift assay of RNA binding by StCsm-40. The binding reactions contained the ³³P-labeled GFP RNA (0.5 nM) and StCsm-40 at concentrations indicated by each lane. Samples were analyzed by PAGE under non-denaturating conditions. (FIG. 16B) StCsm-40 cleavage assay. Cleavage reactions were performed at 25° C. for indicated time intervals in the Reaction buffer supplemented with 10 mM Mg-acetate, 8 nM GFP RNA substrate and 160 nM StCsm-40. Samples were analyzed by denaturing PAGE, followed by phosphorimaging. […]
Binding assays were performed by incubating different amounts of Csm complexes with 0.5 nM of ³²P-5′-labeled NA in the Binding buffer (40 mM Tris, 20 mM acetic acid (pH 8.4 at 25° C.), 1 mM EDTA, 0.1 mg/ml BSA, 10% (v/v) glycerol). […] The Kd for NA binding by Csm-72 and Csm-40 was evaluated assuming the complex concentration at which half of the substrate is bound as a rough estimate of Kd value. For binding competition assay 0.5 nM ³²P-labelled S3/1 RNA was mixed with 0.5-5000 nM of unlabelled competitor NA and 0.3 nM StCsm-40, and analyzed by EMSA.

B1: jGFP crRNA 40 nt ; jGFP target RNA (coding-strand DNA sequence printed) (ssRNA ; ssRNA)
RNA 1: ACGGAAACAUAACCUUCGGGCAUGGCACUCUUGAAAAAGU
RNA 2: CAUGACUUUUUCAAGAGUGCCAUGCCCGAAGGUUAU
B1: binds.
